Data as given in the supplement of paper PMC12667976.
± gives the standard error.

B1: library; numbered along this chain (parent)
chain: MATDAALRRLLRLHRTEIAVAVDSAFPLLHALADHDVVPEDKFQETLHLKEKEGCPQAFHALLSWLLTQDSTAILDFWRVLFKDYNLERYGRLQPILDSFPKDVDLSQPRKGRKPPAVPKALVPPPRLPTKRKASEEARAAAPAALTPRGTASPGSQLKAKPPKKPESSAEQQRLPLGNGIQTMSASVQRAVAMSSGDVPGARGAVEGILIQQVFESGGSKKCIQVGGEFYTPSKFEDSGSGKNKARSSSGPKPLVRAKGAQGAAPGGGEARLGQQGSVPAPLALPSDPQLHQKNEDECAVCRDGGELICCDGCPRAFHLACLSPPLREIPSGTWRCSSCLQATVQEVQPRAEEPRPQEPPVETPLPPGLRSAGEEVRGPPGEPLAGMDTTLVYKHLPAPPSAAPLPGLDSSALHPLLCVGPEGQQNLAPGARCGVCGDGTDVLRCTHCAAAFHWRCHFPAGTSRPGTGLRCRSCSGDVTPAPVEGVLAPSPARLAPGPAKDDTASHEPALHRDDLESLLSEHTFDGILQWAIQSMARPAAPFPS

Variants of: B1
Assay: AIRE transcriptional activation functional score (insulin promoter-GFP; nonsense median 0, synonymous median 1) (normalised score); higher = higher AIRE activity (more reporter activation)
Conditions: with insulin promoter-GFP reporter in HEK293
Experimental: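 Deep mutational scan of full-length human AIRE (codon-optimized cDNA, DT-POPCode NNN libraries over three regions) integrated at a Bxb1 landing pad in HEK293 cells carrying an insulin core promoter-GFP reporter at a Flp-In site. Cells were sorted for the top 10% GFP about 14 days after transfection. Variant frequency log-ratios (select vs non-select, TileSeq) were rescaled so that the nonsense median is 0 and the synonymous median is 1, then averaged over biological replicates.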

AIRE transcriptional activation functional score of substitutions, site by site:
F59: N -0.0761 ± 0.11, P 0.0711 ± 0.28, Q -1.19 ± 0.16, R -0.191 ± 0.58, S 0.2 ± 0.44, T 0.102 ± 0.45, V 0.903 ± 0.24, W 0.208 ± 0.13, Y -0.0924 ± 0.19
H60: A -0.135 ± 0.21, C -0.27 ± 0.15, D -0.0281 ± 0.26, E -0.56 ± 0.42, F 1.06 ± 0.24, G 0.0323 ± 0.62, I 0.216 ± 0.5, K -0.424 ± 0.78, L -0.135 ± 0.34, M 0.414 ± 0.035, N 0.179 ± 0.12, P -0.793 ± 0.31, Q 0.338 ± 0.4, R 0.0862 ± 0.41, S -0.00297 ± 0.25, T 0.117 ± 0.24, V -0.0783 ± 0.37, W 0.431 ± 0.35, Y 0.332 ± 0.24
A61: C -0.153 ± 0.5, D 0.176 ± 0.057, E 0.619 ± 0.68, F 0.26 ± 0.071, G 0.214 ± 0.29, H 1.26 ± 0.14, I -0.471 ± 0.2, L -0.166 ± 0.57, M 0.552 ± 0.27, N 0.59 ± 0.081, P -0.68 ± 0.6, Q 0.472 ± 0.21, R 0.646 ± 0.67, S 1.48 ± 0.25, T 0.573 ± 0.52, V 0.328 ± 0.53, W 1.46 ± 0.13, Y -0.0286 ± 0.38
L62: A -0.0777 ± 0.31, C 0.584 ± 0.15, D -0.0278 ± 0.14, E -0.679 ± 0.41, F -0.766 ± 0.19, G -0.253 ± 0.25, H -0.594 ± 0.34, I -0.601 ± 0.32, K -0.404 ± 0.34, M 0.558 ± 0.11, N 0.232 ± 0.31, P -0.295 ± 0.47, Q 0.0502 ± 0.23, R -0.00966 ± 0.95, S 0.0796 ± 0.81, T -0.152 ± 0.78, V 0.0204 ± 0.24, W 0.305 ± 0.099, Y 0.0998 ± 0.29
L63: A 0.181 ± 0.47, C -0.0612 ± 0.18, D -0.402 ± 0.66, E -1.39 ± 0.13, F 0.298 ± 0.27, G 0.772 ± 0.4, H -0.128 ± 0.63, I 0.588 ± 0.7, K -0.721 ± 0.11, M -0.458 ± 0.078, N 0.0814 ± 0.2, P 0.339 ± 0.63, Q -0.326 ± 0.27, R -0.0432 ± 0.48, S -0.272 ± 0.55, T -0.37 ± 0.2, V 0.617 ± 0.34, W 0.381 ± 0.093, Y -0.421 ± 0.5
S64: A -0.0317 ± 0.36, C -0.513 ± 0.2, D -0.252 ± 0.077, E -0.72 ± 0.23, F 0.0385 ± 0.17, G 0.447 ± 0.49, H 0.583 ± 0.12, I -0.0655 ± 0.31, K -0.37 ± 0.16, L -0.114 ± 0.42, M -0.0813 ± 0.17, N 0.278 ± 0.14, P 0.795 ± 0.47, Q -0.939 ± 0.095, R -0.473 ± 0.57, T 0.485 ± 0.82, V -0.0585 ± 0.4, W 0.42 ± 0.18, Y 0.513 ± 0.21
W65: A -0.93 ± 1.4, C 0.469 ± 0.22, D -1.55 ± 0.86, E 0.0731 ± 0.092, F 0.122 ± 0.3, G 0.22 ± 0.48, H 0.542 ± 0.72, I -0.311 ± 0.42, K 0.535 ± 0.13, L 0.2 ± 0.59, M -0.0554 ± 0.18, N 0.316 ± 0.17, P -0.233 ± 0.91, Q -0.357 ± 0.56, R -0.313 ± 0.32, S 0.269 ± 0.64, T 1.03 ± 0.31, V -0.0047 ± 0.31, Y -0.365 ± 0.21
L66: A 0.62 ± 0.47, C -0.733 ± 0.54, D -0.102 ± 0.6, E -0.037 ± 0.99, F -0.101 ± 0.092, G -0.202 ± 0.45, H 0.316 ± 0.2, I 0.885 ± 0.42, K -0.126 ± 0.13, M 0.0543 ± 0.14, N -0.299 ± 0.66, P 0.349 ± 0.9, Q 0.233 ± 0.26, R -0.171 ± 0.6, S -0.186 ± 0.46, T -0.0651 ± 0.43, V 0.121 ± 0.2, W 0.0325 ± 0.056, Y 0.687 ± 0.4
L67: A 0.0875 ± 0.38, C -0.405 ± 0.18, D 0.698 ± 0.24, E -0.592 ± 0.38, F -0.0388 ± 0.21, G -0.0868 ± 0.65, H 0.742 ± 0.33, I 0.391 ± 0.42, K 0.25 ± 0.13, M 0.554 ± 0.29, N 0.265 ± 0.11, P -0.378 ± 0.59, Q -0.874 ± 0.39, R -0.769 ± 0.77, S -0.0517 ± 0.24, T -0.29 ± 0.49, V 0.638 ± 0.51, W 0.0659 ± 0.065, Y 0.237 ± 0.24
T68: A 0.312 ± 0.28, C 0.77 ± 0.18, D -0.277 ± 0.067, E -2.1 ± 0.14, F -0.0989 ± 0.12, G 0.848 ± 0.95, H 0.424 ± 0.27
